B1: 47VHH1C17 (VHH)
VHH: QVQLVESGGGLVQAGGSLRLSCAASGHTFSSYDMGWFRQAPGKEREFVAHINWSGSTYYADSVKGRFTISGGNAKNAVYLQMNSLKPEDTAVYYCGAKYAISRTWDYWGQGTQVTVSS
notes: alpaca VHH; Cloned into pET32b+; about 17 kDa on SDS-PAGE; source: E. coli BL21DE3, purified (Ni-NTA, gel-filtration)
B2: 47VHH1D9 (VHH)
VHH: RVQAGGSLRLSCKVSGNNFRRVNMGWYRQAPGKQRDLVAWISNDGGTYYDRSLKGRFTISRDNTKNTMFLQMDSLKPEDTAVYYCNSRPSSIFGSWGQGTQVTVSS
notes: as for B1
B3: 47VHH2B10 (VHH)
VHH: QVQLVESGGGLVQPGGSLRLSCEASGFNLGYYGICWFRRAAGKEREGVACSATPDDSTYYADSVKGRFTISKDKAKNMIFLQMNDLKPEDTAVYYCVTDRKPKYGKQWLEFSEYDYWGQGTQVIVSS
notes: as for B1
B4: 47VHH1A12 (VHH)
VHH: QLQLVESGGGLVQAGGSLRLSCVVSGGTFSALTMGWFRDVPGKEREFVSAISFDTRTTYYSDSVKGRFAISRDNGLNTVYLDMNSLRPEDTAVYVCAADAQIGWVNRRAYDYDYWGQGTQVTVSS
notes: as for B1
B5: 47VHH1H4 (VHH)
VHH: QVQLVESGGGLVQAGGSLRLSCKVSGNNFRRVNMGWYRQAPGKQRDLVAWISNDGGTYYDRSLKGRFTISRDNTKNTMFLQMDSLKPEDTAVYYCNSRPSSIFGSWGQGTQVTVSS
notes: alpaca VHH; Cloned into pET32b+; about 17 kDa on SDS-PAGE; also called native 47VHH1H4; source: E. coli BL21DE3, purified (Ni-NTA, gel-filtration)
B6: 47VHH1H4B (VHH)
VHH: B5 VHH
notes: as the VHH of m3 (47VHH1H4); IgA hinge linker; biotin acceptor domain BAD; About 25 kDa on SDS-PAGE; also called biotinylated 47VHH1H4; biotinylated 47VHH1H4 fragment; source: E. coli BL21DE3 carrying BirA, 0.3 mM biotin, purified (Ni-NTA, UNO S1 cation exchange)

Target: T1, human CD47 with His tag (Homo sapiens, UniProt Q08722)
T1 construct: CD47, human; The alpaca was immunised with an extracellular fragment of CD47; also called recombinant CD47; source: gift from P.M. Chumakov
Assay: SPR; recombinant CD47 anchored to a CM5 chip, nanobodies as analyte, Biacore T200
Conditions: both partners purified

T1 sequence (Q08722 19-323): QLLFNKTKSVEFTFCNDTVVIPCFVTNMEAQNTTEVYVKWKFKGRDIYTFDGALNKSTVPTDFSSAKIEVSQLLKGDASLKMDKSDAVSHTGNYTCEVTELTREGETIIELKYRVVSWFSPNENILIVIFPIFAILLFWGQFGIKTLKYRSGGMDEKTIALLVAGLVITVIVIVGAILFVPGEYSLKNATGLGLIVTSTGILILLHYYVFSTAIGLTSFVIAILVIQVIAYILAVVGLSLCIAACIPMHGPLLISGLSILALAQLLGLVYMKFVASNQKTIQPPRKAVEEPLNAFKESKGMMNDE

Binder	Kd
B1	2 µM
B2	0.4 µM
B3	~30 µM
B4	~30 µM
B5	0.03 µM
B6	0.003 µM

Reference: publication PMC10801496, “A Novel Anti-CD47 Nanobody Tetramer for Cancer Therapy” (Antibodies, 2024)
